{"source": "the nanobody polyreactivity screen of Harvey et al. (2022)"}
{"test": "yeast display, Sf9 membrane polyspecificity reagent, FACS + sequencing; frameworks hold sequencing errors", "procedure,_shortened": "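A nanobody's polyreactivity label depends on the gate it was sorted from. Yeast display cells were stained with 10% biotinylated, detergent-solubilized Sf9 membrane reagent for 1 hour at 4 °C, enriched on streptavidin microbeads and sorted by FACS. The low and high (top ~1%) gates were set on anti-HA fluorescence for expression and streptavidin fluorescence for reagent binding.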"}
{"sequence": "QVQLVESGGGLVQAGGSLRLSCAASGFTFKYYAMGWYRQAPGKERELVAAITWSGGSTYYADSVKGRFTISRDNAKNTVYLQMNSLKPEDTAVYYCNAKVYQISRYGYWGQGTQVTVSS", "polyreactivity (PSR sort gate)": "high polyreactivity"}
{"sequence": "QDHLVESGGGLVQAGGSLRLSCSASGSNFRSYAMGWYRQAPGKERELVAAITWSGGRTYYADSVKGRFTISRDNAKNTVYLQMNSLKPEDTAVYYCNAVYLAYGGAYWGQGTQVTVSS", "polyreactivity (PSR sort gate)": "high polyreactivity"}
{"sequence": "QVQLVESGGGLVQAGGSLRLSCAASGRTFGFNAMGWYRQAPGKDRELVASITRGGRTDYADSVKGRFTISRDNAKNTVYLQMNSLKPEDTAVYYCAAQSGWHHTGGMYYWGQGTQVTVSS", "polyreactivity (PSR sort gate)": "high polyreactivity"}
{"sequence": "QVQLVESGGGLVQAGGSLRLSCAASGSTFDSYAMGWYRQAPGKERELVAAITNGGSTYYADSVKGRFTISRDNAKNTVYLQMNSLKPEDTAVYYCATDDYLLDYLYDYWGQGTQVTVSS", "polyreactivity (PSR sort gate)": "low polyreactivity"}
{"sequence": "QVQLVESGGGLVQAGGSLRLSCAASGRTFVYNAMGWYRQARGKEREFVAAISSGGGTNYADSVKGRFTISRDNAKNTVYLQMNSLQPEDTAVYYCAAGSVSIFRGYRDYYNPKEYDYCGQGTQVTVSS", "polyreactivity (PSR sort gate)": "low polyreactivity"}
{"sequence": "QVQLVESGGGLVQAGGSLRLSCAPSGRTFVYYAMGWYRQAPGKERELVASISSGGGSTNYADSVKGRFTISRDNAKNTVYLQMNSLKPEDTAVYYCAVDTPRYRYYRTSYDYWGQGTQGTVSS", "polyreactivity (PSR sort gate)": "low polyreactivity"}
{"sequence": "QVQLVESGGGLVQAGGSLRLSCAASGSTFPYNTMGWYRQAPGKEREFVAAITGDGGTTYYADSVKGRFTISRDNAKNTVYLQMNSLKPEDTAVYYCAVPYPAEGYGGDYWGQGSQVTVSS", "polyreactivity (PSR sort gate)": "low polyreactivity"}
{"sequence": "QVQLVESGGGLVQAGGSLRLSCAASGSIFKIYAMGWYRQAPGKERELVAAISRRGSSTSYADSVKGRFTISRDNAKNTVYLQMNSLKPEDTAVYYCAARYISNPMDYWGQGTQVTVSS", "polyreactivity (PSR sort gate)": "high polyreactivity"}
{"sequence": "QVQLVDSGGGLVQAGGSLRLSCAASGIILVNNAMGWYRQAPGKEREFVAAIRYSAGSTYYADSVKGRFTISRDNAKTTVYLQMNSLKPEDTAVYYCNAVRYPTRGYYPYRYGYWGQGTQVNVSS", "polyreactivity (PSR sort gate)": "high polyreactivity"}
{"sequence": "QVQLVESGGGLVQAGGSLRLSCVASGRTFSRYAMGWYRQAPGKERELVAAISLRCGRTKYADSVKGRFTISRDNAKNTVYLQMNSLKPEDTAVYYCAADIYYGYPWRYHAGYYEGFDYWGQGTQVTVSS", "polyreactivity (PSR sort gate)": "high polyreactivity"}
{"sequence": "QVQLVESGGGLFQEGGSLRLSCAASGRTFKYYAMGWYRQAPGKERELVASISQSGTSTYYADSVKGRFTISRDNAKSTVYLQLNSLKPEDTAVYFCGARTRYRYYSYGYWGQATQVTVSS", "polyreactivity (PSR sort gate)": "high polyreactivity"}
{"sequence": "QVQLQESGGGLVQAGGSLRLSCAASGSISSRDAMGWYRQAPGKEREFVATIASGTTTYYADSVKGSFTISRDNAENTLYLQTNSLKPEDTAVYYCAAPTIQIYPFYYWGQGTQVTVSS", "polyreactivity (PSR sort gate)": "high polyreactivity"}
{"sequence": "QVQLVESGGGLVQAGGSLRLSCAASGSTFSFYAMGWYRQAPGKERELVAAISRSGGSTFYADSVKGRFTISRDNAKNTVYLQMNSLKPEDTAVYYCAAYGGLQSRYYYWGQGTQVTVSS", "polyreactivity (PSR sort gate)": "high polyreactivity"}
{"sequence": "QVQLVESGGGLVQAGGSLRLSCAASGFTIGHYAMGWYRQAPGKERELVAAISSGDRTYFADSVKGRFTISRDNAKNTFYLQMNSLKPEDTAVYYCNAVYYSWAQSARFDYWGQGTQVTVSS", "polyreactivity (PSR sort gate)": "low polyreactivity"}
{"sequence": "QVQLVESGGGLVQAGGSLRLSCAASGSIFYYNAMGWYRQAPGKERELVAAISVSGGSTYYADSVKGRFTISRDNAKNTVYLQMNSLKPEDTAVYYCAAEWLYYYWLPGRADYLEYDYWGQGTQVTVSS", "polyreactivity (PSR sort gate)": "low polyreactivity"}
{"sequence": "QVQLVESGGGLVQAGGSLRLSCAASGRTFEWYAMGWYRPAPGKERELVAVISSGGSTNYADSVKGRFTISRDNAKNTVYLQMNSLIPEDTAVYYCAVLQARDGYWLYLYDYWGQGTQVTVSS", "polyreactivity (PSR sort gate)": "low polyreactivity"}
{"sequence": "QVQLVESGGGLVKAGGSLRLSCDSSGGTFSTYAMGWYRQAPGKERELVAAISWRGGSTYYAVSVKGRFTISRDNAKNTVYLQMNSLKPEYNAVYYCAAYYYRGWLLYWDEMYYWGQGTQVTVSS", "polyreactivity (PSR sort gate)": "high polyreactivity"}
